Experimental findings from publication PMC11389850 are described below.

The term stoichiometry N denotes the number of molecules, sites or subunits per partner or assembly.

This test concerns the target BbmrR (Brevibacillus borstelensis). Nature of the test: SEC; analytical size-exclusion chromatography, Superdex 200 10/300, 50 mM phosphate buffer, 500 mM NaCl, pH 7.5, 100 uL sample injected; column calibrated with LMW/HMW gel-filtration kits. A general note: In gel filtration, larger molecules generally elute earlier.

For BbmrR (natural protein), the stoichiometry N came to 2.
